According to patent US20220267421A1 (INVOX PHARMA, published 2022):
Where a chain is given by its changes, count along the chain named.

T1: cynomolgus MSLN-His-Avi (cynomolgus, single biotin (BirA) in the biotinylated form)
T1 construct: Monomeric, made in HEK293-6E; also called cMSLN-His-Avi; cyno MSLN-His-Avi
T1 chain: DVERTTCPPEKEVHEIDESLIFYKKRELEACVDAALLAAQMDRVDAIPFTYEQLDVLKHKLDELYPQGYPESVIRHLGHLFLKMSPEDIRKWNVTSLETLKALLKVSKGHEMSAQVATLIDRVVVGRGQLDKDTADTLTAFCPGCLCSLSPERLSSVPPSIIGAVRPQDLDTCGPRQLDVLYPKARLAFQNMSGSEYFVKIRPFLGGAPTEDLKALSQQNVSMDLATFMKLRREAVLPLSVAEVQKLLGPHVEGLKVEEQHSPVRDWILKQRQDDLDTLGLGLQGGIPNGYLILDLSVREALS

B1: FS22-053-008-AA/FS28-256-012 mAb^2 (bispecific antibody, human IgG1, kappa, L234A L235A, V domains shown)
VH: EVQLLESGGGLVQPGGSLRLSCAASGFTFTHTYMSWVRQAPGKGLEWVSNISPTYSTTNYADSVKGRFTISRDNNKNTLYLQMNSLRAEDTAVYYCARYNAYHAALDYWGQGTLVTVSS
VL: EIVLTQSPGTLSLSPGERATLSCRASQSVSSSYLAWYQQKPGQAPRLLIYGASSRATGIPDRFSGSGSGTDFTLTISRLEPEDFAVYYCQQSYYYPITFGQGTKVEIKR
B2: FS22-053-008-AA/FS28-256-023 mAb^2 (bispecific antibody, human IgG1, kappa, L234A L235A, V domains shown)
VH: B1 VH with H31Q, N75S, H103Q, A104I, A105G
VL: B1 VL with S92H, Y93N, Y94Q, I97N
B3: FS22-053-008-AA/FS28-256-024 mAb^2 (bispecific antibody, human IgG1, kappa, L234A L235A, V domains shown)
VH: B1 VH
VL: B1 VL with S92A, Y93L, Y94G, I97H
B4: FS22-053-008-AA/FS28-256-027 mAb^2 (bispecific antibody, human IgG1, kappa, L234A L235A, V domains shown)
VH: B1 VH
VL: B1 VL with S92T, Y93V, Y94P, I97Y
B5: FS22-053-008-AA/FS28-256-021 mAb^2 (bispecific antibody, human IgG1, kappa, L234A L235A, V domains shown)
VH: B1 VH
VL: B1 VL with S92H, Y93N, Y94Q, I97N
B6: FS22-053-008-AA/FS28-256-026 mAb^2 (bispecific antibody, human IgG1, kappa, L234A L235A, V domains shown)
VH: B1 VH with H31Q, N75S, H103Q, A104I, A105G
VL: B1 VL with S92A, Y93L, Y94G, I97H
B7: G1-AA/FS28-256 (antibody, human IgG1, kappa, L234A L235A, V domains shown)
VH: B1 VH with H31N, N75S, A101S, H103Q, A104G, A105G
VL: B1 VL
notes: IgG1 LALA

molecular target: T2, human MSLN-His-Avi (human, UniProt Q13421 296-598, single biotin (BirA) in the biotinylated form); assay: ratio of the two SPR KD
T2 construct: Monomeric, made in HEK293-6E; Used both immobilised and in solution; also called hMSLN-His-Avi; biotinylated hMSLN-His-Avi
Method: (§1) Human MSLN-His-Avi was immobilised on flow cell 2 on a CM5 Series S BIAcore sensor chip (GE Healthcare, BR100530) using an amine coupling kit (GE Healthcare, BR10050) to approximately 200 response units (RU). Flow cell 1 was left blank for subtraction. HEK293-6E supernatants or purified proteins were adjusted with HBS-EP+(GE Healthcare) to approximately 50 nM anti-MSLN mAb per sample. Samples were injected over flow cell 1 and 2 for 2.5 min at 30 μl/min and then allowed to dissociate in HBS-EP buffer for 2.5 min. Regeneration was achieved by injecting 10 mM glycine pH 1.5 (GE Healthcare, BR100354) for 30 seconds at a rate of 30 μl/min. Subtracted data (flow cell 2−flow cell 1) were analysed using BIAevaluation 3.2 Software (GE Healthcare).
(§2) Binding of the selected anti-MSLN clones in mAb² format, to recombinant human and cyno MSLN-His-Avi antigen was measured by SPR using a Biacore T200 processing unit (GE Healthcare). As previously described, it was desirable to bind more strongly to immobilised antigen than to soluble antigen. To assess the binding properties of the clones, binding kinetics to immobilised MSLN antigen were determined as described in section 2.1.2 and compared to the kinetics obtained when MSLN antigens in solution bound to captured clones.
(§3) For the capture experiments, clones in mAb² format were captured using a BIAcore sensor series S chip Protein G (GE Healthcare, 29179315). mAb² diluted in HBS-EP buffer (GE Healthcare, BR100188) containing 900 mM […] at 1 μg/ml, were injected individually on flow cell 2, 3 and 4 at 30 μl/min to achieve a response of approximately 100 RU. G1-AA/HeID1.3 was captured on flow cell 1. The recombinant human and cyno MSLN-His-Avi (section 1.1), diluted in HBS-EP buffer containing 900 mM […], were injected on flow cell 1, 2, 3 or 4 as appropriate at a concentration range of 1000 nM to 0.051 nM with 3-fold dilutions for 5 minutes at 70 μl/min and then allowed to dissociate in buffer for 5 minutes. Regeneration was achieved by injecting 10 mM glycine pH1.5 (GE Healthcare, BR100354) and surfactant P20 (GE Healthcare, BR-1000-54) for 20 seconds at a rate of 30 μl/min.

T2 sequence (Q13421 other isoform, or with tags, fused parts or gaps): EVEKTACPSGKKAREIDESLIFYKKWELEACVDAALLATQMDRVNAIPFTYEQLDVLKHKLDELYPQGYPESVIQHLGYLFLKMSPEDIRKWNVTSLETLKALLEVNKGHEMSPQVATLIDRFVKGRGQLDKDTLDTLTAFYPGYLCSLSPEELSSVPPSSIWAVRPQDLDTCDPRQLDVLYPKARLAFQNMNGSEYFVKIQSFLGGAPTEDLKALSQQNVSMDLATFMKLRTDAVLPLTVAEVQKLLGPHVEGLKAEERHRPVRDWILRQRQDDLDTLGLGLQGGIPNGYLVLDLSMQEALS

Ratio of KD in solution/immobilised for human MSLN-His-Avi | Binder
209 | B1
20.8 | B2
14.3 | B3
5.3 | B4
7 | B5
19.5 | B6

molecular target: T3, cell surface human mesothelin (MSLN) (human, UniProt Q13421 296-598); assay: flow cytometry, NCI-H226 cells
T3 construct: whole, on cells; also called cell surface MSLN
Method: (§4) Cells were centrifuged at 1200 rpm for 3 min and resuspended in ice cold FACS buffer made up of DPBS (Life Technologies, 14190169) and 1% BSA (Sigma-Aldrich, A7906) at 2×10⁶ cells/ml and 50 μl per well was seeded in a 96-well V-bottom plate (Costar, 3894). All mAbs tested were diluted in FACS buffer in 120 μl at a concentration range of 0.01-200 nM (4-fold dilutions). The NCI-H226 cells were then centrifuged, supernatant removed and cells resuspended in 100 μl of each mAb dilution and incubated at 4° C. for 45 min. Cells were washed twice by centrifugation with 150 μl FACS buffer, resuspended in 100 μl containing goat anti-human IgG (γ-chain specific) F(ab′)2 fragment-R-Phycoerythrin antibody (Sigma, P8047) diluted 1:1000 in FACS buffer and incubated at 4° C. for 45 min. The cells were washed once with 150 μl FACS buffer and then with 150 μl DPBS, resuspended in 150 μl DPBS containing DAPI (Biotium, 40043) at 1:10.000 and read on the BDCantoll or iQue (Intellicyt). Data was analysed using FlowJo v10 to determine the signal geometric mean for PE for live cells in each well.
(§5) Cell binding assays using OVCAR-3 cells were performed similarly to the assays described in section 2.4. The effect of the presence of soluble MSLN was tested by pre-incubating the antibodies in the presence or absence of soluble MSLN before mixing with cells and determining if the pre-incubation affected binding to MSLN on the cell surface. […] 60 μl from each well was then added to either FACS buffer alone or to FACS buffer containing 60 μl of 40 nM recombinant hMSLN (R&D systems, 3265-MS-050) (to give a final concentration of 20 nM hMSLN) and pre-incubated at room temperature for 1 hour before 100 μl was added to the cells. Bound antibody was detected using goat anti-human anti-Fcγ Alexa-Fluor 488 (Jackson Immunoresearch, 109-546-098).
(§6) The method used was exactly as described in section 3.1.4.

T3 sequence (Q13421 other isoform, or with tags, fused parts or gaps limits assumed): as the sequence (Q13421 other isoform, or with tags, fused parts or gaps) above

EC50 [nM] | Emax (MFI) | Binder
8.48 | 969000 | B1
3.29 | 856000 | B2
3.88 | 813000 | B3
3.93 | 987000 | B4
3.29 | 919000 | B5
2.43 | 741000 | B6

molecular target: T3, cell surface human mesothelin (MSLN); assay: flow cytometry, NCI-H226 cells (n = 3)
Method: Briefly, NCI-H226 cells (ATCC CRL-5826) were harvested from T175 cell culture flasks using StemPro Accutase (Gibco, A11105-01). Cells were centrifuged at 1200 rpm for 3 min and resuspended in ice cold FACS buffer made up of DPBS (Life Technologies, 14190169) and 1% BSA (Sigma-Aldrich, A7906) at 2×10⁶ cells/ml and 50 μl per well was seeded in a 96-well V-bottom plate (Costar, 3894). All mAbs tested were diluted in FACS buffer in 120 μl at a concentration range of 0.01-200 nM (4-fold dilutions). The NCI-H226 cells were then centrifuged, supernatant removed and cells resuspended in 100 μl of each mAb dilution and incubated at 4° C. for 45 min. Cells were washed twice by centrifugation with 150 μl FACS buffer, resuspended in 100 μl containing goat anti-human IgG (γ-chain specific) F(ab′)2 fragment-R-Phycoerythrin antibody (Sigma, P8047) diluted 1:1000 in FACS buffer and incubated at 4° C. for 45 min. The cells were washed once with 150 μl FACS buffer and then with 150 μl DPBS, resuspended in 150 μl DPBS containing DAPI (Biotium, 40043) at 1:10.000 and read on the BDCantoll or iQue (Intellicyt). Data was analysed using FlowJo v10 to determine the signal geometric mean for PE for live cells in each well.

EC50 [nM] | Emax (MFI signal) [MFI] | Binder
33.1 | 4250 | B7

molecular target: T2, human MSLN-His-Avi; assay: SPR (Biacore), MSLN immobilised, mAb^2 injected
Method: as §1, §2

Kd [nM] | Binder
4.1 | B1
3.3 | B2
6.7 | B3
1.1 | B4
3.3 | B5
3.2 | B6

molecular target: T3, cell surface human mesothelin (MSLN); assay: flow cytometry, NCI-H226 cells + 20 nM soluble MSLN
Method: as §4, §5, §6

EC50 [nM] | Emax (MFI) | Binder
4.83 | 790000 | B1
3.9 | 716000 | B2
3.91 | 669000 | B3
21.8 | 964000 | B4
7.65 | 839000 | B5
4.59 | 715000 | B6

molecular target: T2, human MSLN-His-Avi; assay: SPR (Biacore), hMSLN-His-Avi immobilised at 50 RU, mAb injected
Method: as §1
(§7) For each bin described in 2.1.3, the binding kinetics were determined using the same method as described in section 2.1.2, except that human or cyno MSLN-His-Avi was immobilised at 50 or 100 RU. Clones were tested at a concentration range of 81 nM to 0.33 nM in 3-fold dilutions.

Kd [nM] | Binder
26.2 | B7

molecular target: T2, human MSLN-His-Avi; assay: SPR (Biacore), hMSLN-His-Avi immobilised at 100 RU, mAb injected
Method: as §1, §7

Kd [nM] | Binder
23.2 | B7

molecular target: T2, human MSLN-His-Avi; assay: SPR (Biacore), mAb^2 captured on Protein G, MSLN in solution injected
Method: as §2
as §3, with “μl/min. Subtracted data (flow cell 2−flow cell 1, flow cell 3−flow cell 1, or flow cell 4−flow cell 1) were analysed using BIAevaluation 3.2 Software (GE Healthcare) to identify binding using the model 1:1 binding, local Rmax and with refractive index (RI) constant 0.” for “μl/min.”

Kd [nM] | Binder
861 | B1
68.6 | B2
95.4 | B3
6 | B4
23.2 | B5
62.3 | B6

Molecular target: T1, cynomolgus MSLN-His-Avi
Assay: as above
Method: as §2
as §3, with “μl/min. Subtracted data (flow cell 2−flow cell 1, flow cell 3−flow cell 1, or flow cell 4−flow cell 1) were analysed using BIAevaluation 3.2 Software (GE Healthcare) to identify binding using the model 1:1 binding, local Rmax and with refractive index (RI) constant 0.” for “μl/min.”

Kd [nM] | Binder
717 | B1
32.6 | B2
56.7 | B3
0.7 | B4
16.2 | B5
33.2 | B6
